Data published in the DeepSol protein solubility set.

Test: soluble on expression in E. coli; label from the status in PepcDB or PDB records

Sequence | soluble on expression in E. coli
GLPDSAFEHDGQLTKRDVRAITLARLAPVPGELLWDVGAGCGSIGIEWMRAHPTCRAMAIEADEGRQQLIEFNRDALGVPGLQLVRGSAPQALSGLERPDAIFIGGGVTRIGVLETCWEQLRSGGRLVANAVTLQSEAALMAWRERHGGELTRIHVAHAQPLGEFDTWRQALPITLLDVVKP | not soluble
MGSDKIHHHHHHMARHGKGPKTNKKKLAPEKERFIQCCADITLELTDSLTSGTTREINLNGLITKYSKKYKLKQQPRLTDIINSIPDQYKKYLLPKLKAKPVRTASGIAVVAVMCKPHRCPHIAYTGNICVYCPGGPDSDFEYSTQSYTGYEPTSMRAIRARYDPYEQARGRVEQLKQLGHSIDKVEYVLMGGTFMSLPKEYREDFIVKLHNALSGFNGNDIDEAILYSQQSLTKCVGITIETRPDYCTQTHLDDMLKYGCTRLEIGVQSLYEDVARDTNRGHTVRSVCETFAVSKDAGYKVVSHMMPDLPNVGMERDIEQFKEYFENPDFRTDGLKIYPTLVIRGTGLYELWKTGRYKSYSANALVDLVARILALVPPWTRIYRVQRDIPMPLVTSGVDNGNLRELALARMKDLGTTCRDVRTREVGIQEVHHKVQPDQVELIRRDYYANGGWETFLSYEDPKKDILIGLLRLRKASKKYTYRKEFTSQRTSIVRELHVYGSVVPLHSRDPRKFQHQGFGTLLMEEAERIAKEEHGSEKISVISGVGVRNYYGKLGYELDGPYMSKRI | not soluble
MASVAAARAVPVGSGLRGLQRTLPLVVILGATGTGKSTLALQLGQRLGGEIVSADSMQVYEGLDIITNKVSAQEQRICRHHMISFVDPLVTNYTVVDFRNRATALIEDIFARDKIPIVVGGTNYYIESLLWKVLVNTKPQEMGTEKVIDRKVELEKEDGLVLHKRLSQVDPEMAAKLHPHDKRKVARSLQVFEETGISHSEFLHRQHTEEGGGPLGGPLKFSNPCILWLHADQAVLDERLDKRVDDMLAAGLLEELRDFHRRYNQKNVSENSQDYQHGIFQSIGFKEFHEYLITEGKCTLETSNQLLKKGIEALKQVTKRYARKQNRWVKNRFLSRPGPIVPPVYGLEVSDVSKWEESVLEPALEIVQSFIQGHKPTATPIKMPYNEAENKRSYHLCDLCDRIIIGDREWAAHIKSKSHLNQLKKRRRLDSDAVNTIESQSVSPDHNKEPKEKGSPGQNDQELKCSV | soluble
MGSDKIHHHHHHMENYLGRLWTKAQLSEQLRKIAISLPSFIKKGSDYICTRCSSSVAKNCQLPTGNYYCRECIVFGRVTSNENLYYFPQKTFSKTNSLKWKGELTPYQNEVSEELLKGISSKENLLVHAVTGAGKTEMIYHSVAKVIDTGGSVCIASPRIDVCLELYKRLSNDFRCAITLMHGESPSYQRSPLTIATTHQLLKFYHAFDLLIVDEVDAFPYVDNPILYQGVKQALKENGTSIFLTATSTTELERKVARKELKKLHLARRFHANPLVIPEMVWVSGIQKSLQTQKLPPKLYQLINKQRQTRYPLLLFFPHISEGQVFTEILRQAFPMEKIGFVSSKSTSRLKLVQDFRDNKLSILVSTTILERGVTFPSVDVFVIQANHHLFTKSSLVQISGRVGRALERPEGLLYFLHDGKSKSMHQAIKEIKNMNHIGGF | not soluble
MKTHQYELIDEKVFEHEFDNGLKLFIIPKPGFQKTYVTYTTQFGSLDNHFKPIGSQQFVKVPDGVAHFLEHKLFEKEDEDLFTAFAEENAQANAFTSFDRTSYLFSATSNIESNIKRLLNMVETPYFTEETVNKEKGIIAEEIKMYQEQPGYKLMFNTLRAMYSKHPIRVDIAGSVESIYEITKDDLYLCYETFYHPSNMVLFVVGDVSPQSIIKLVEKH | not soluble
MAHHHHHHMERAHGAKDGGSKTLFVTVGSHQFDDLIKQIDTKDFHSFLRRAGFAKMSMQIGQGTYEPQLIYRCSGNGEESLLKRVKFFRYKKDLLKDFQKADLIVSHAGAGTTLEGLRMKKKMLIVVNDKLMGNHQLEFAEFLRSRNYLEVCECLGDLRAHVLRCLRTPAFAPFPAPRPEPFLRDLRALMDGAA | soluble
MLGLLRRLFDNNEREIARYYKQVVEPVNRLEAEVEKLPDLAAAYRELKEKHEKGASLDELLPMAFALTRESAKRYLGMRHFDVQLIGGAVLHEGKIAEMKTGEGKTLVATLAVALNALTGKGVHVVTVNDYLARRDAEWMGPVYRGLGLSVGVIQHASTPAERRKAYLADVTYVTNSELGFDYLRDNMAISPDQLVLRHDHPLHYAIIDEVDSILIDEARTPLIISGPAEKATDLYYKMAEIAKKLERGLPAEPGVRKEPTGDYTVEEKNRSVHLTLQGIAKAEKLLGIEGLFSPENMELAHMLIQAIRAKELYHRDRDYIVQDGQVIIVDEFTGRLMPGRRYGEGLHQAIEAKEGVRIERENQTLATITYQNFFRLYEKRAGMTGTAKTEEKEFQEIYGMDVVVVPTNRPVIRKDFPDVVYRTEKGKFYAVVEEIAEKYERGQPVLVGTISIEKSERLSQMLKEPRLYLPRLEMRLELFKKASQKQQGPEWERLRKLLERPAQLKDEDLAPFEGLIPPKGNLRTAWEGLKRAVHTLAVLRQGIPHQVLNAKHHAREAEIVAQAGRSKTVTIATNMAGRGTDIKLGGNPEYLAAALLEKEGFDRYEWKVELFIKKMVAGKEEEARALAQELGIREELLERIREIREECKQDEERVRALGGLFIIGTERHESRRIDNQLRGRAGRQGDPGGSRFYVSFDDDLMRLFASDRVIAMLDRMGFDDSEPIEHPMVTRSIERAQKRVEDRNFAIRKQLLQFDDVLSRQREVIYAQRRLILLGKDEEVKEAAIGMVEETVASLAENFLNPEVHPEDWDLEGLKATLLDTAPQLQDFPFAELRALKAEEAVERLVEAALKAYEAREAELSPPLMRAVERFVILNVVDNAWKEHLHNLDVLRQGIFLRGYGQKDPFQEYKIEATRLFNEMVAFIKSEVAKFLFRLKVEAEPVRPVREAPYVPVPEAKPEPSEVFGVERKRATPPPQPGLSRAERRRLMRQEKKRKK | soluble
MEYKLHNGSGGLCCKGCSRQDKKLNTYDWLADIPGNAEECDMVEVQFKNTRKGYYRNSNKIKLEKGDIVAVEAAPGHDIGVVTLTGRLVPLQMKKANFKTDVEIKRIYRKAKPVDMEKFNEAKAKEHATMIRARQIALNLNLDMKIGDVEYQGDGNKAIFYYIADERVDFRQLIKVLAEAFRVRIEMKQIGARQEAGRIGGIGPCGRELCCATWMTSFVSVSTSAARFQDISLNPQKLAGQCAKLKCCLNYEVDCYVEAQKRLPSKEIELETKDGTFYFFKADILSNHVSYSTDKNFPANLVTISGKRAFEVIAMNKKGMKPDSLLEAEVKQESKKPIDLLEQESLTRFDRNRNNKDGNNGNRNKKKRKGNNDNRPQAQAESGNRPQQPQRGENENRPQPSENGNRGERGDRENRPRNNNNNNRNRGQNQGRNNENRRPERGQNQERPQNPNRPQNQERSQNQERPVNQERNQERNQERPQNRERQPKQERPQNQERPQEQGRQPNQERIPRPERNSNQEKPQNNEKPAQELEHHHHHH | soluble
MGSDKIHHHHHHMTNKVVNNDKISSVGIIGCGWLGSALAYQLKNQDIAVLATRSNIDNIEQLKSQGIEAEVLSLPAEQAQLNTHPIFKQQCLVIAITPQFRQGRVDYADKVQQLVESAKVGNCVEQIILLSSSAIYNGLSGDVEENSILDMSADKVSVLNQAEQAVLSFNHPGRNESRLNALNAEVGNKKAYVLRLSGLVGPKRHPGKFLLNGHMLKSPQAIVNLIHQQDAVGLIQTLLQSANCGGIFNGVSSTKVTKKQYYQAAASALQLPTPTFEEIELSEDNAPKVVSGKKTQAELAYEFVYDDLLAWLELAV | not soluble
MAHHHHHHMSATRDGSRSHSDGGFDGRSLLSEQTKLLRESTPADINFIQFLKLRLSAQQRATAQRNYWQRVQREAADSMNANTAHRQGRGGISASVAPVSTSAAGRESEASSNHIGSGRRNWHAAGSAEGASFSTYDAEHMMLEHSTASFGTLSKQDAFTRATSHGAVPPPTVHQHSFEDLRAAVLKRRSTPASELTDFVAVSTAELSEDGNSSQRRPSGPLQEEDAYALAPFIASSYSAAAAAAIDERPAMACGKPQVPVDVDEMKDVALEPCPHCGRTFAPARLERHVVTCERHRNTLPKTKGDMKSCRAFSSRKKPDRTAGGDGAAASAAATANTAGAAPGGPLRWSTDTAIKPEKWRKQSAQLRNAMAGASVAVDDDRVLCPSCGRHFSDDVAARHIPICKSKGGRAA | not soluble
GPGSMRAEETAPSIPPPPTISPQKTSHRTAVVPSDPSNRPTQSLRSTKELMRQRRSTVVPRITDIFALGQLHEKGERVGSRNVCPPTWKQRMSLAGQFTTFCRTHEQPINEKSCAVILMAILDVAPSTRPQHARMLRSVLRMDRTPLDMMILGLKETAARSETKQQRQQSRAIYRRCACASSGRNSMAPPMRTTVNENETARTLRRSCFSATK | soluble
MVAPSFPLFNLPQKNLKDVFCNMSVIQQTCISLISEKTRNLVREFHIFKQLQVCLDFIFLPDYHFYLKGSAKFIFIPHNRKFIARSSSGEHSNYSVPQFDAKSWLKHLIYIFNVTEIHSLRSRFFDWDLREPRLKMPKECLKNLKILNLSIGFTNKISLVVELYSAFQHIKKFSLRQYSHKPLDSTLLLELRHLLSKTNQQLCLNINLPLNELLLTSCSSIDIHRTQLTDKDINVFLKHWFAGLKPELEHFRVRKDGPAFNQKTILKGIPHEFASIGRKFKLFEMDSQVGGIDIDLGQDIKATLVFNHKPGIADFSVAVHNSKYFFC | not soluble
MEILTLEQQKSFIKAIDGHKLEVLFLLALGTGLRLGELLGLKWFDIDFKKSNLTVKRTLQRTYFIDKTGNRELKVLEQGPKTSNSYRTVPIPKDVLNKLKEHKVNQNTDILKAGELYINNNYVFCNELGIPIDDKRPLRNLKSILNSLNIEPIKFHGLRKTYATRLFENDVPPKTVQVLMGHYDISITLNIYTQVMEDKKVEAVEKLDKIFSLEHHHHHH | soluble
RYWQLEVAPRRRADPPEALLELLDRSVTARMQGGPVGSMLSGGLDSGTVSMLASRRSEGPLPVISMKFDDHPEIDESEWIAKIHAAGRFRPVWIDGRDAHGGDVAELLAEQGGPFFAPNLATSRWLYRRAAEAGVEILLDGHGGDEVISFGVARLTELASEAQWRTLWQSTAAVSDLFGGSRREFFLNSMAQGAQSRWLRAMARRLNVGAKRDPRAWRQALHPALVARTGLVQRVQEAAGARKRGATDDIRQHVATLTAPRYPTTLEVLDRAATLCGIEPRYPFLERRLIEHCVAQPAAAKFHDGMTRALLRDAVRGLLPDEVRLRTSKTNFTPNVRARMLTSWGDNLNRIAGCNPGRIGDYVDLAVIREGIQRLRAGEPDQPALLQTMRAVVLDEWLR | not soluble
MLRRTLHCCTAVRHTSVPSFMQHPVEMAFYFPRFHPDTHVNAAGIPELIDAVGLMTRHSRSSRAESTASASTSAAESAMSRALPPTRWTTTVSATAQPTTDASVVEAQKDNAKSLLLLERGIDILNSVGGVRNPTVANLLRPLYAARFEMLNGSEHLPRSEYAKRMHVHKAILQQAAPLLYYDAWDKSDVHQLDTSCVLVGHFMKAFCALHPRPFHPVAAPATSGGAGSSQASSTTTTASSSSSSNSNSNVTSSSSAQSTPKGAFNPAEWKMAVGDDGEGAYLTLSIVQDRVEELLRLATAAYDKHGSTHPELRWLRPKLLVLKGLLTIPLTGHLLHAQRCIEEAAHYVDALTKRTNLLLDGLKERTHEPELGLYMLLQAEIAARVFDWDVAPGQVDGDVVNMFTDAAGYYADPPNTTLDGDAIMSERKLAEQRFEVEAYACCLRSYAAFLLGASRPEATSTRDSPVFLAKQLFSLNPLLTVATSSSLIFSDVRNVSELPLDMCRRRTGEALDRALKLNRMLYPDFRQNAPAAATLMTMACMYADTRDYLYATGLFESANKAVTYNFGDTSLEHVFLQKLRYEFLAGVGSEQEAKTASHEVVHLLKRIDALPC | soluble
MTAEVMSHVTAHFGKTLEECREESGLSVDILDEFKHFWSDDFDVVHRELGCAIICMSNKFSLMDDDVRMHHVNMDEYIKSFPNGQVLAEKMVKLIHNCEKQFDTETDDCTRVVKVAACFKEDSRKEGIAPEVAMVEAVIEKY | soluble
